{"source": "patent US20220249685A1", "about": "“ANTI-MESOTHELIN ANTIBODIES AND IMMUNOCONJUGATES THEREOF” (Silverback Therapeutics, Inc., priority 2019, published 2022)", "key": {"[1]": {"assay": "Tm of purified antibodies (Table 1)", "type": "physicochemical", "details": "purified antibody", "experimental": "Six humanized heavy chains were co-transfected with 5 humanized light chains into the ExpiCHO expression system in a 30mL culture. The supernatant was analyzed via Octet to determine off rates and any that retained binding and contained less mouse sequence, were purified and further characterized. Clones 6 and 37 were selected for further optimization. An additional mutation in CDRH2, G55A, was introduced to reduce chemical modification of the neighboring Asparagine (N) residue. These humanized sequences are represented in SEQ ID NOs. 1-15."}, "[2]": {"assay": "Analytical hydrophobic interaction chromatography (HIC) profile, incl. after 40° C. stress", "type": "physicochemical", "details": "TSKgel Butyl-NPR, ammonium sulfate"}, "[3]": {"tested_on": "huPBMCs in the presence of HEK-293 cells transfected with human MSLN", "assay": "TNFα production by huPBMCs with HEK-293 cells transfected with human MSLN", "type": "cell-based", "details": "overnight, AlphaLISA", "experimental": "Human Whole Blood was obtained from Bloodworks Northwest and collected in 10mL EDTA tubes. Human PBMCs were then isolated from the whole blood by Ficoll gradient centrifugation and resuspended in assay media (RPMI-1640 Medium supplemented with 10% Fetal Bovine Serum, 1 mM Sodium Pyruvate, 1× GlutaMAX-1, 1× Non-Essential Amino Acids, 10mM HEPES and 0.5% Penicillin/Streptomycin; all from Gibco). Tumor cells were removed from tissue culture flasks with HyQTASE (Hyclone), washed twice and resuspended in assay media.\nHuman PBMCs isolated as described above were resuspended in assay media, and plated in 96-well flat bottom microtiter plates (125,000/well). MSLN-expressing HEK-293cells were then added (25,000/well) along with titrating concentrations of conjugated or unconjugated antibodies. Mock transfected HEK-293 cells were used as a negative control. After overnight culture, supernatants were harvested, and TNFα levels were determined by AlphaLISA."}}, "data": [{"substance": "SS1: chimeric monoclonal anti-mesothelin antibody IgG/K; VH SEQ ID NO: 25, VL SEQ ID NO: 26", "values": [{"measurement": "Tm ° C.", "setting": "[1]", "value": 69, "unit": "°C"}, {"measurement": "profile on an analytical HIC column", "setting": "[2]", "value": "multiple variant species"}, {"measurement": "TNFα production from huPBMCs", "setting": "[3]", "value": "did not stimulate TNFα production"}]}]}
